From article PMC7961048, “Hierarchized phosphotarget binding by the seven human 14-3-3 isoforms” (Nature Communications, 2021)

Experiments:
14-3-3β = 14-3-3β (UniProt P31946); assay: competitive FP, FITC-HSPB6 phosphopeptide tracer; conditions: reference: unphosphorylated 18E6 peptide; sites T156
14-3-3γ = 14-3-3γ (UniProt P61981); assay: competitive FP, FITC-HSPB6 phosphopeptide tracer; conditions: reference: unphosphorylated 18E6 peptide; sites T156
14-3-3ε = 14-3-3ε (UniProt P62258); assay: competitive FP, FITC-HSPB6 phosphopeptide tracer; conditions: reference: unphosphorylated 18E6 peptide; sites T156
14-3-3ζ = 14-3-3ζ (UniProt P63104); assay: competitive FP, FITC-HSPB6 phosphopeptide tracer; conditions: reference: unphosphorylated 18E6 peptide; sites T156
14-3-3η = 14-3-3η (UniProt Q04917); assay: competitive FP, FITC-HSPB6 phosphopeptide tracer; conditions: reference: unphosphorylated 18E6 peptide; sites T156
14-3-3σ = 14-3-3σ (UniProt P31947); assay: competitive FP, FITC-HSPB6 phosphopeptide tracer; conditions: reference: unphosphorylated 18E6 peptide; sites T156
14-3-3τ = 14-3-3τ (UniProt P27348); assay: competitive FP, FITC-HSPB6 phosphopeptide tracer; conditions: reference: unphosphorylated 18E6 peptide; sites T156
[1] = target: phosphorylated 14-3-3ζ-18E6 chimera (14-3-3ζ∆C-GGGG-18E6 PBM) (human | human papillomavirus type 18) (UniProt P63104); assay: crystal structure

| Substance | binding against the reference (14-3-3β) | binding against the reference (14-3-3γ) | binding against the reference (14-3-3ε) | binding against the reference (14-3-3ζ) | binding against the reference (14-3-3η) | binding against the reference (14-3-3σ) | binding against the reference (14-3-3τ) | stoichiometry N [1] |
| --- | --- | --- | --- | --- | --- | --- | --- | --- |
| HPV18 E6 (18E6) (from UniProt P06463) p18E6 peptide | gained | gained | gained | gained | gained | gained | gained | – |
| phosphorylated 14-3-3ζ-18E6 chimera (14-3-3ζ∆C-GGGG-18E6 PBM) (from UniProt P63104 1-229) | – | – | – | – | – | – | – | 2 |
